Experimental data: US20120258108A1 (AbbVie / Abbott, published 2012)

Columns and labels:
[1] = target: T1, Recombinant Human TNFα/TNFSF1A (human, UniProt P01375 77-233); assay: cell-based or functional assay
[2] = target: T1, Recombinant Human TNFα/TNFSF1A; assay: SPR (BIACORE)
Procedure: The BIACORE assay (Biacore, Inc, Piscataway, N.J.) determines the affinity of antibodies or DVD-Ig with kinetic measurements of on-rate and off-rate constants. Binding of antibodies or DVD-Ig to a target antigen (for example, a purified recombinant target antigen) was determined by surface plasmon resonance-based measurements with a Biacore® 1000 or 3000 instrument (Biacore® AB, Uppsala, Sweden) using running HBS-EP (10 mM HEPES [pH 7.4], 150 mM NaCl, 3 mM EDTA, and 0.005% surfactant P20) at 25° C. All chemicals were obtained from Biacore® AB (Uppsala, Sweden) or otherwise from a different source as described in the text. For example, approximately 5000 RU of goat anti-mouse IgG, (Fcγ), fragment specific polyclonal antibody (Pierce Biotechnology Inc, Rockford, Ill.) diluted in 10 mM sodium acetate (pH 4.5) is directly immobilized across a CM5 research grade biosensor chip using a standard amine coupling kit according to manufacturer's instructions and procedures at 25 μg/ml. Unreacted moieties on the biosensor surface are blocked with ethanolamine. Modified carboxymethyl dextran surface in flowcell 2 and 4 is used as a reaction surface. Unmodified carboxymethyl dextran without goat anti-mouse IgG in flow cell 1 and 3 is used as the reference surface. For kinetic analysis, rate equations derived from the 1:1 Langmuir binding model are fitted simultaneously to association and dissociation phases of all eight injections (using global fit analysis) with the use of Biaevaluation 4.0.1 software. Purified antibodies or DVD-Ig are diluted in HEPES-buffered saline for capture across goat anti-mouse IgG specific reaction surfaces. Antibodies or DVD-Ig to be captured as a ligand (25 μg/ml) are injected over reaction matrices at a flow rate of 5 μl/min. The association and dissociation rate constants, kₒₙ (M⁻¹ s⁻¹) and koff (s⁻¹) are determined under a continuous flow rate of 25 μl/min. Rate constants are derived by making kinetic binding measurements at different antigen concentrations ranging from 10-200 nM. The equilibrium dissociation constant (M) of the reaction between antibodies or DVD-Igs and the target antigen is then calculated from the kinetic rate constants by the following formula: KD=koff/kₒₙ. Binding is recorded as a function of time and kinetic rate constants are calculated.

T1 sequence (P01375 77-233 limits assumed): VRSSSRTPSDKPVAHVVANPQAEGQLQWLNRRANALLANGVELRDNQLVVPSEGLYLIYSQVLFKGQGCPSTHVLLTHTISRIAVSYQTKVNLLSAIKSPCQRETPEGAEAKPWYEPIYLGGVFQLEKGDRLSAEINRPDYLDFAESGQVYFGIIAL

Row | TNFα Neutralization Assay EC50 nM (L929 cells) [1] | Kd [2] | koff [2] | kon [2] | C-terminal VD TNFα Neutralization Assay EC50 nM (L929 cells) [1] | Binder
1 | 0.053 nM | 0.064 nM | 7.9e-05 s⁻¹ | 1.2e+06 M⁻¹ s⁻¹ |  | AB314 (antibody, human IgG1, kappa, V domains shown, CDR-grafted parent antibody; also called TNF (AB023)) VH: EVQLVESGGGLVQPANSLKLSCAASGFTFDDYAMHWVRQSPKKGLEWVSAITWNSGHIDYADSVEGRFTISRDNAKNTLYLQMDSLRSEDTATYYCAKVSYLSTASSLDYWGQGVLVTVSS VL: DIRMTQSPASLSASLGETVNIECRASQGIRNYLAWYQQKPGKAPQLLIYAASTLQSGVPSRFSGSGSGTQFSLKINSLQSEDVATYYCQRYNRAPYTFGGGTKLELKR
2 | 0.228 nM | 0.13 nM | 0.00015 s⁻¹ | 1.2e+06 M⁻¹ s⁻¹ |  | AB284 (antibody, human IgG1, kappa, V domains shown, CDR-grafted parent antibody; also called TNF (AB058)) VH: EVQLVQSGTEVKKPGESLKISCKASGFTFDDYAMHWVRQMPGKGLEWVSAITWNSGHIDYADSVEGQFTISRDNSFNTLFLQWSSLKASDTAMYYCAKVSYLSTASSLDYWGQGTMVTVSS VL: EIVMTQSPATLSVSPGERATLSCRASQGIRNYLAWYQQKPGQAPRLLIYAASTLQSDVPARFSGSGSGTEFTLTISSLQSEDFAVYYCQRYNRAPYTFGQGTRLEIKR
3 |  | 5.4 nM | 0.00012 s⁻¹ | 22000 M⁻¹ s⁻¹ | 1.17 nM | DVD1727 (bispecific antibody, human IgG1, kappa, DVD-Ig; also called PGE2 (AB017) / TNF (AB023) DVD-Ig) heavy: not shown light: DVQMTQSPSSLSASVGDRVTITCTSSQNIVHSNGNTYLEWYQQKPGKSPKLLIYKVSNRFSGVPSRFSGSGSGTDFTLTISSLQPEDVATYYCFQVSHVPYTFGQGTKVEIKRTVAAPDIRMTQSPASLSASLGETVNIECRASQGIRNYLAWYQQKPGKAPQLLIYAASTLQSGVPSRFSGSGSGTQFSLKINSLQSEDVATYYCQRYNRAPYTFGGGTKLELKRTVAAPSVFIFPPSDEQLKSGTASVVCLLNNFYPREAKVQWKVDNALQSGNSQESVTEQDSKDSTYSLSSTLTLSKADYEKHKVYACEVTHQGLSSPVTKSFNRGEC
